# Measured values as given in the RNAGym collection of RNA variant scans (doi:10.1073/pnas.2313332121).
# B1: TPR t1 (parent)
# chain: GACCAAUCUGCCCUCAGAGCUCGAGAACAUCUUCGGAUGCAGAGGAGGCAGGCUUCGGUGGCGCGAUAGCGCCAACGUCCUCAACCUCCAAUGCAUCCCACCACAUGAUGAUGCCUGAAGAGCCUUGGUUUUUUG
# Variants of: B1
# Assay: polymerase ribozyme fitness, log enrichment relative to wild type (log ratio); higher = more active; in vitro selection for triplet polymerase activity
# Outline: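 Fitness measures genotype enrichment against wild-type enrichment on a logarithmic scale, with inverse-variance-weighted averaging of replicates. The logarithm is base 2, and genotypes were kept only with ≥10 input reads and ≥1 read per output in Illumina sequencing. The sequenced libraries came from one triplicate in vitro selection round, including frozen incubation at −7 °C, of PCR-built, transcribed mutant libraries of each subunit of a heterodimeric triplet polymerase ribozyme.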
row,Variant,polymerase ribozyme fitness (log ratio)
1,C13U C102U G117U,-3.38
2,C13A G93C C123G,-0.906
3,C13U G39U C73A A83U A121U,1.24
4,C13U C98A,-4.9
5,C13U C20G G45A U96A,-4.96
6,U14A C49G G61C A66U,-5.01
7,C13A G61A C88A G110A,-2.92
8,C13U A43G G60A,-1.39
9,U14A G19A G42U A43C C70A,-6.34
10,C13G A46U,-2.39
11,C13G A83C C94G A119U C123G G127C G135U,-3.17
12,C13A C85G C123U,-0.463
13,C13G C70A,-2.2
14,C13A A95C G120A,-0.521
15,C13U C40U A43U C72G A84G C89G,-6.24
16,U14A G48U U59G,-2.71
17,C13U G44A C79G G93U,-4.32
18,C13U C104U,-0.259
19,U14A G39A U55A U78C G117C,-7.2
20,C13U G19A G45C U59C C82U U112A,0.0802
21,C13U U14C G69U C70U A90G,-2.94
22,C13G C40U C49A C64A A100C C115U,-6.9
23,C13U G60U,-0.0139
24,C13U G60A,0.0451

row,Variant,polymerase ribozyme fitness (log ratio)
1,C13G U54C C85U U87C,-1.99
2,C13A G120U,-0.457
3,C13U C99U U133G,-2.46
4,C13U A26U,-3.03
5,C13U A100U C101U C104U A121C,1.33
6,C13U A27U C72A U130A,-2.6
7,C13G G44A G48C U55G C79U C124G,-0.404
8,C13U A26G G63C U81A G117C,-6.91
9,C13U U59A G60A C80U A95C G120U,-1.94
10,C13U A41U,-0.968
11,C13A A24G U32C C94U C104U G120A,-1.91
12,U14A A37U G52A U59C,-3.31
13,C12U U54A,0.369
14,C13U G120C,1.89
15,C13U G120A,1.58
16,C13U A121G,2.04
17,C13U A121U,2.03
18,C12U U33G A105U U112G U125A,-7
19,C12U U112G,0.735
20,C13U A41G A46G C53A U78C,-0.474
21,C13U A27U G36A G61A C79A,-5.13
22,U14A C56U C73U U112G G120C,-1.15
23,C13U C22G A26C A37U A41G A50G C115U,-3.21
24,C13G G39U U54A,-2.59

row,Variant,polymerase ribozyme fitness (log ratio)
1,C13A C53A G120U U132C,-0.539
2,C13A G47A C64U G93U C101G U131A,-5.14
3,U14A C49U G60A A100U U106A,-3.83
4,C13U C70A C72U,-1.42
5,C13U G45U C82U,-0.895
6,C13G G110A,-1.87
7,C13U C86U,-0.506
8,C12U G122A,-0.00508
9,C13G A37U U38C,-2.77
10,C13U G45U A84G A121U,0.667
11,C13A G60U G69U,-4.92
12,C13U G57A C102A G127C,-3.71
13,C13G G36U A37G C80U,-5.7
14,C13A A26U A46U U81G C114U,-6.71
15,C13U C56G C62U A74G U96A A100C,-4.8
16,C13A A103U A108U G117C U129A,-6.73
17,C12U U14G C79U,0.109
18,U14A G48A U59A C89A,-5.96
19,C13U G69A C88U,-2.75
20,U14A G52U C72U U116C G122U,-4.11
21,U14A G63C G113A,-4.74
22,C13U A91U,-0.839
23,C13A A16U G117U,-4.37
24,C13A C56U U59A,-2.77

row,Variant,polymerase ribozyme fitness (log ratio)
1,C13U G35C,-3.79
2,C13A U78A,-2.18
3,C13A A29G C70U A95U C124A,-1.57
4,C13G G113A A118C,-4.34
5,C13U C20U G63U,-2.31
6,C13U A108U,-4.78
7,C13G G17C,-4.94
8,C13U A27U C49A U130C U132C,-2.53
9,C13U C28G C34G C49A C76A A100C U109A C123G,-6.13
10,C13A C88A,-2.19
11,C13A A43C C101A A111C,-6.5
12,C13A G63U U112C,-1.77
13,C13U U59C A83U U96G,-1.05
14,C13A A46U A74U,-3.21
15,C13A G117A,-4.07
16,C13U G110A,-0.303
17,U14A,-1.85
18,C13G G47U U87A C88U G110U,-6.69
19,U14A U33G C34A G47C C70U U112A G127A,-6.98
20,C12U U132A,0.262
21,C13A A18G C49A C94U G117U,-6.43
22,C13G G58A C70U A105C C124A G127A,-4.77
23,C13A U87A U106A,-2.48
24,C13G G44U C82A,-3.4

row,Variant,polymerase ribozyme fitness (log ratio)
1,U14A A26U,-5.1
2,C13G C20U,-2.34
3,C13G G47C,-3.71
4,C13G G57C C73A G110A,-2.44
5,C13G G60A G77C U130C,-3.08
6,C13G C62A C124A,0.6
7,C13U A43C G71A C82A C98G C102A A105U G117C,-6.77
8,C13G U32C C53A C70G,-3.88
9,C13A U21A U54C C56G C86A U106G C124U,-2.59
10,C13U G48U C73U U130G,-0.119
11,C12U U32C U81A U112A,0.32
12,C13A A29G,-3.22
13,U14A G19U U32G U81G A100G G120C,-7.12
14,C13A C53G U54A G117C,-4.98
15,C13U G48A C98U G122A G128C G135U,-1.66
16,C13G A100C,-3.31
17,U14A A24C C49G C72U U92C G113U U116A,-6.78
18,C13G U54C G63A A100U U109A U131G,-6.38
19,C13U G39U U59A G128U,-1.64
20,C13G C80A C82G U130C,-4.35
21,C13A G36C G69C,-2.94
22,C13U G44A C49U C86G C102U U106G U112G A121C U131A U133A,-6.07
23,C13U A50C,-0.095
24,U14A A37C C40A G69U,-4.24

row,Variant,polymerase ribozyme fitness (log ratio)
1,U14A C101U,-3.07
2,C13G G120U,-0.586
3,C13G G120C,0.441
4,C13G C101U,-2.08
5,C13U C72U,-0.334
6,C13A G47U G63U,-4.2
7,C12U U14A C88G,-1.12
8,U14A U21G,-1.66
9,C13U C34U C40U A50G U59C,-5.78
10,C13G A83U,-2.24
11,C13U C76U,-0.121
12,C13G C20U C64U C104A A111U U130G,-5.67
13,C13A C20U U38A A91U C124G,-1.87
14,C13A U21C G57A U59G A75U C86U C97U,-5.71
15,C13U C88A,-0.243
16,C13U A29U A46U C56A C97U,-3.44
17,C13A C72G A83G A121U C123U,-0.305
18,C13A A84G,-2.42
19,C13A A18G C73A,-4.96
20,C13A G60A,-1.95
21,C13A C89G C97U,-3.27
22,C13A C72G C82A C94U G110A,-3.05
23,C13U G45C C73U C123A,0.429
24,C12U U14A C64U G110U G113A U130C,-4.16

row,Variant,polymerase ribozyme fitness (log ratio)
1,C13A A18G C98G G120C,-1.26
2,C13G G45U C89A G120U U130A,-3.41
3,C13U G47U,-1.97
4,C13U G117U,-2.13
5,C13G G19C G61U C88U,-4.01
6,C13A G63A G77U U106A C114A,-6.33
7,C13U C15G C88A U96C,-2.33
8,U14A C31U U32G C53G C80A C104U G120C G135U,-7.94
9,C13A G44U C72U U78C G128A,-6.14
10,C13U C56U A111G,0.163
11,C13U C49U G57A C82G U106A,-0.895
12,C12U G120U,2.06
13,C13G G35U G61U C102U,-6.42
14,U14A G45A G47U G52A C86A,-3.59
15,C13U A46U G110A A111C A119C,-5.5
16,C13U C72A C101A C114A,-1.86
17,C13U G58A C73U,-0.277
18,C12U U21A A29G G63A,-2.72
19,C13U U126A,-1.64
20,C13A A43C G44A G77A A83U,-4.05
21,C13A U112G A121G,-1.42
22,C13U A46G G47U C82A,-1.52
23,C13U U106G,-0.787
